Experimental findings from patent US20250041377A1, “PHARMACEUTICAL USE” (ENLITISA (SHANGHAI) PHARMACEUTICAL CO., LTD., priority 2018, published 2025) are described below.

In assay [1] the test system is Hyp, VEGF and TGF-β1 in wound tissue. Description: Acute wound model, ELISA of wound tissue. The settings on record: for wound Hyp content (Mean): indicator of collagen regeneration; for TGF-β1 content (Mean): wound tissue. In kind it is in vivo, C57BL/6 mice. The text has this:
(§1) The model group was given same amount of normal saline. There were 8 mice in each group.
Samples were taken at Day 4 and Day 7 post-wound infliction. The mice were sacrificed and the wound tissue taken by the same biopsy punch used to create the wound. Then 5 mm of tissue was cut off from the center of the sample and was preserved in 10% neutral buffered formalin (Nanchang Rain Dew Experimental Equipment Co., Ltd., Nanchang, Hubei Province, China), and analyzed by histological embedding (HE) in paraffin wax, sectioning and staining.
The rest of the samples were stored at −80° C. for further analysis. Tissue was cut into small pieces and liquid nitrogen was added to increase brittleness. 9 mL of normal saline was added to 1 g of tissue, which was then ground using a Tissuelyser (Shanghai Jingxin Industrial Development Co., Ltd., Shanghai, China) at 55 Hz for 60 seconds, followed by centrifuging at 8000 rpm for 10 minutes at 4° C.
The supernatant was collected, and the extracted protein was used for ELISA analysis using standard ELISA test kits and an ELISA reader (SH-1000 Hitachi, Japan). Vascular endothelial growth factor (VEGF), transforming growth factor beta 1 (TGF-β1) and hydroxyproline (Hyp) were assayed. The ELISA kits were purchased from Beijing 4A Biotech Co., Ltd. (Beijing, China).
(ELISA stands for enzyme-linked immunosorbent assay.)

The test system of assay [2] is full thickness skin wound on the back. Kind of assay: Acute wound model, remaining wound area. In kind it is in vivo, C57BL/6 mice. Conditions: ± SD. As for the experimental part:
6-8 weeks old male C57BL/6 mice were supplied by Changzhou Cvens Experimental Animal Co. Ltd (Changzhou, Jiangsu Province, China). Prior to any experiments being conducted, mice were housed under standardized conditions (at a constant temperature of 22±2° C., with alternating 12 hour periods of light and darkness), and were fed on a standard mouse diet with water, for about a week.
General anesthesia was induced using intraperitoneal 3% chloral hydrate (1 mL/10 g of body weight). The hair on the back was shaved by a baby hair shaver and depilated with cream. The skin area was wiped and sterilized with 75% alcohol twice.
An EMS skin biopsy punch (Electron Microscopy Sciences, P.O. Box 550, 1560 Industry Road, Hatfield, PA, USA) with a 18 mm diameter was used to make a round wound on the back. The full thickness of skin was removed and the depth of the wound reached the fascia. Wounds were left open without a suture.
as §1
Recombinant Human Epidermal Growth Factor (rhEGF, Shanghai Haohai Biological Technology Co. Ltd, 23/F, Shanghai, China) was purchased and prepared according to the manufacturer's instructions. The lyophilized rhEGF powder (100000 IU/vial) was dissolved in 20 mL of normal saline to make a solution with a concentration of 5000 IU/mL. The working dose of rhEGF for this experiment was 1285 IU/wound.
For this experiment, Compound A was also obtained from GL Biochem (Shanghai) Ltd. The peptide powders were stored at −20° C. and dissolved in saline at concentrations of 61.8 μg/mL (Compound A), and 61 μg/mL (Compound B). 50 μL of the solutions were applied onto the wound surfaces.
Wounds were dressed with gauze and transparent dresser after drug administration. Photographs were taken for each wound every other day from Day 0. Photos were scanned into a computer, and wound areas calculated using ImageJ image analysis software (National Institutes of Health, […]).
The unhealed wound area was expressed as a percentage of the original wound area: […]
where A0 and At refer to the initial area at Day 0 and the wound area at the date of measurement (time t), respectively.

B1: rhEGF: Recombinant Human Epidermal Growth Factor, lyophilized powder dissolved in normal saline (protein, UniProt P01133 23-1207, looked up)
Pro-epidermal growth factor: PQHWSCPEGTLAGNGNSTCVGPAPFLIFSHGNSIFRIDTEGTNYEQLVVDAGVSVIMDFHYNEKRIYWVDLERQLLQRVFLNGSRQERVCNIEKNVSGMAINWINEEVIWSNQQEGIITVTDMKGNNSHILLSALKYPANVAVDPVERFIFWSSEVAGSLYRADLDGVGVKALLETSEKITAVSLDVLDKRLFWIQYNREGSNSLICSCDYDGGSVHISKHPTQHNLFAMSLFGDRIFYSTWKMKTIWIANKHTGKDMVRINLHSSFVPLGELKVVHPLAQPKAEDDTWEPEQKLCKLRKGNCSSTVCGQDLQSHLCMCAEGYALSRDRKYCEDVNECAFWNHGCTLGCKNTPGSYYCTCPVGFVLLPDGKRCHQLVSCPRNVSECSHDCVLTSEGPLCFCPEGSVLERDGKTCSGCSSPDNGGCSQLCVPLSPVSWECDCFPGYDLQLDEKSCAASGPQPFLLFANSQDIRHMHFDGTDYGTLLSQQMGMVYALDHDPVENKIYFAHTALKWIERANMDGSQRERLIEEGVDVPEGLAVDWIGRRFYWTDRGKSLIGRSDLNGKRSKIITKENISQPRGIAVHPMAKRLFWTDTGINPRIESSSLQGLGRLVIASSDLIWPSGITIDFLTDKLYWCDAKQSVIEMANLDGSKRRRLTQNDVGHPFAVAVFEDYVWFSDWAMPSVMRVNKRTGKDRVRLQGSMLKPSSLVVVHPLAKPGADPCLYQNGGCEHICKKRLGTAWCSCREGFMKASDGKTCLALDGHQLLAGGEVDLKNQVTPLDILSKTRVSEDNITESQHMLVAEIMVSDQDDCAPVGCSMYARCISEGEDATCQCLKGFAGDGKLCSDIDECEMGVPVCPPASSKCINTEGGYVCRCSEGYQGDGIHCLDIDECQLGEHSCGENASCTNTEGGYTCMCAGRLSEPGLICPDSTPPPHLREDDHHYSVRNSDSECPLSHDGYCLHDGVCMYIEALDKYACNCVVGYIGERCQYRDLKWWELRHAGHGQQQKVIVVAVCVVVLVMLLLLSLWGAHYYRTQKLLSKNPKNPYEESSRDVRSRRPADTEDGMSSCPQPWFVVIKEHQDLKNGGQPVAGEDGQAADGSMQPTSWRQEPQLCGMGTEQGCWIPVSSDKGSCPQVMERSFHMPSYGTQTLEGGVEKPHSLLSANPLWQQRALDPPHQMELTQ
modifications: Pro-epidermal growth factor
notes: Recombinant Human Epidermal Growth Factor, lyophilized powder dissolved in normal saline
Consider B1, for which the “wound Hyp content (Mean)” value in assay [1] (Day 4) was found to be 1.808 µg/mg; in assay [1] (Day 7) it was 2.679 µg/mg. Further, the figures for the “TGF-β1 content (Mean)” value in assay [1] (Day 4) and in assay [1] (Day 7) were 18190.6 pg/g and 15443.1 pg/g, respectively. Moreover, the “ratio of remaining wound area of initial wound” value in assay [2] (Day 0, topical 50 μL/wound once daily, rhEGF 1285 IU/mouse, Compound A 3.09 μg/mouse, Compound B 3.05 μg/mouse) was determined as 82.0 ± 2.2%; in assay [2] (Day 1, topical once daily), 100 ± 9.9%; in assay [2] (Day 2, topical once daily), 94.1 ± 4.3%; in assay [2] (Day 3, topical once daily), 78.6 ± 7.3%; in assay [2] (Day 4, topical once daily), 61.5 ± 3.3%; in assay [2] (Day 5, topical once daily), 53.0 ± 1.0%. For the same molecule, the “ratio of remaining wound area of initial wound” value in assay [2] (Day 6, topical once daily) was 47.2 ± 5.8%.
